# Numbered stars: 1 amine (or outer) side, 2 acyl side, 3 side chain; on linkers, the order of the positions; unused ones are H or OH. Bridge positions count the residues as written; N and C are the ends. Square brackets hold non-standard residues; d marks the D form. Ends that are not written are not given here. * marks the point of attachment. TATA = O=C(CC[*:1])N1CN(C(=O)CC[*:2])CN(C(=O)CC[*:3])C1; Tyr(2-F) = N[C@@H](Cc1ccc(O)cc1F)C(=O)O; Dopa = N[C@@H](Cc1ccc(O)c(O)c1)C(=O)O; 4Pal = N[C@@H](Cc1ccncc1)C(=O)O; dCha = N[C@H](CC1CCCCC1)C(=O)O; Cba = N[C@@H](CC1CCC1)C(=O)O; Pen = CC(C)(S)[C@H](N)C(=O)O; dNle = CCCC[C@@H](N)C(=O)O; dNva = CCC[C@@H](N)C(=O)O; NMeA = CN[C@@H](C)C(=O)O; Pent4ynoyl = C#CCCC(=O)*
# B1: BCY18435 (peptide)
# peptide: Ac-CN[Cba]PDYLC[dA]DEYC-NH2
# modifications: linker 1-8-13 via TATA
# SMILES: CC(=O)N[C@H]1CSCCC(=O)N2CN3CN(C2)C(=O)CCSC[C@H](NC(=O)[C@H](CC(C)C)NC(=O)[C@H](Cc2ccc(O)cc2)NC(=O)[C@H](CC(=O)O)NC(=O)[C@@H]2CCCN2C(=O)[C@H](CC2CCC2)NC(=O)[C@H](CC(N)=O)NC1=O)C(=O)N[C@H](C)C(=O)N[C@@H](CC(=O)O)C(=O)N[C@@H](CCC(=O)O)C(=O)N[C@@H](Cc1ccc(O)cc1)C(=O)N[C@H](C(N)=O)CSCCC3=O
# notes: scaffold TATA
# B2: BCY18441 (peptide)
# peptide: Ac-CY[Cba]PNYLC[dA]DEYC-NH2
# modifications: linker 1-8-13 via TATA
# SMILES: CC(=O)N[C@H]1CSCCC(=O)N2CN3CN(C2)C(=O)CCSC[C@H](NC(=O)[C@H](CC(C)C)NC(=O)[C@H](Cc2ccc(O)cc2)NC(=O)[C@H](CC(N)=O)NC(=O)[C@@H]2CCCN2C(=O)[C@H](CC2CCC2)NC(=O)[C@H](Cc2ccc(O)cc2)NC1=O)C(=O)N[C@H](C)C(=O)N[C@@H](CC(=O)O)C(=O)N[C@@H](CCC(=O)O)C(=O)N[C@@H](Cc1ccc(O)cc1)C(=O)N[C@H](C(N)=O)CSCCC3=O
# notes: scaffold TATA
# B3: BCY18442 (peptide)
# peptide: Ac-CY[Cba]PQYLC[dA]DEYC-NH2
# modifications: linker 1-8-13 via TATA
# SMILES: CC(=O)N[C@H]1CSCCC(=O)N2CN3CN(C2)C(=O)CCSC[C@H](NC(=O)[C@H](CC(C)C)NC(=O)[C@H](Cc2ccc(O)cc2)NC(=O)[C@H](CCC(N)=O)NC(=O)[C@@H]2CCCN2C(=O)[C@H](CC2CCC2)NC(=O)[C@H](Cc2ccc(O)cc2)NC1=O)C(=O)N[C@H](C)C(=O)N[C@@H](CC(=O)O)C(=O)N[C@@H](CCC(=O)O)C(=O)N[C@@H](Cc1ccc(O)cc1)C(=O)N[C@H](C(N)=O)CSCCC3=O
# notes: scaffold TATA
# B4: BCY18443 (peptide)
# peptide: Ac-CY[Cba]PDYLC[dV]DEYC-NH2
# modifications: linker 1-8-13 via TATA
# notes: scaffold TATA
# B5: BCY19682 (peptide)
# peptide: Ac-CY[Cba]PDYLC[dF]DEYC-NH2
# modifications: linker 1-8-13 via TATA
# notes: scaffold TATA
# B6: BCY18437 (peptide)
# peptide: Ac-C[4Pal][Cba]PDYLC[dA]DEYC-NH2
# modifications: linker 1-8-13 via TATA
# SMILES: CC(=O)N[C@H]1CSCCC(=O)N2CN3CN(C2)C(=O)CCSC[C@H](NC(=O)[C@H](CC(C)C)NC(=O)[C@H](Cc2ccc(O)cc2)NC(=O)[C@H](CC(=O)O)NC(=O)[C@@H]2CCCN2C(=O)[C@H](CC2CCC2)NC(=O)[C@H](Cc2ccncc2)NC1=O)C(=O)N[C@H](C)C(=O)N[C@@H](CC(=O)O)C(=O)N[C@@H](CCC(=O)O)C(=O)N[C@@H](Cc1ccc(O)cc1)C(=O)N[C@H](C(N)=O)CSCCC3=O
# notes: scaffold TATA
# B7: BCY18440 (peptide)
# peptide: Ac-CY[Cba][NMeA]DYLC[dA]DEYC-NH2
# modifications: linker 1-8-13 via TATA
# SMILES: CC(=O)N[C@H]1CSCCC(=O)N2CN3CN(C2)C(=O)CCSC[C@H](NC(=O)[C@H](CC(C)C)NC(=O)[C@H](Cc2ccc(O)cc2)NC(=O)[C@H](CC(=O)O)NC(=O)[C@H](C)N(C)C(=O)[C@H](CC2CCC2)NC(=O)[C@H](Cc2ccc(O)cc2)NC1=O)C(=O)N[C@H](C)C(=O)N[C@@H](CC(=O)O)C(=O)N[C@@H](CCC(=O)O)C(=O)N[C@@H](Cc1ccc(O)cc1)C(=O)N[C@H](C(N)=O)CSCCC3=O
# notes: scaffold TATA
# B8: BCY18444 (peptide)
# peptide: Ac-CY[Cba]PDYLC[dNva]DEYC-NH2
# modifications: linker 1-8-13 via TATA
# SMILES: CCC[C@H]1NC(=O)[C@@H]2CSCCC(=O)N3CN(CN(C3)C(=O)CCSC[C@H](NC(C)=O)C(=O)N[C@@H](Cc3ccc(O)cc3)C(=O)N[C@@H](CC3CCC3)C(=O)N3CCC[C@H]3C(=O)N[C@@H](CC(=O)O)C(=O)N[C@@H](Cc3ccc(O)cc3)C(=O)N[C@@H](CC(C)C)C(=O)N2)C(=O)CCSC[C@@H](C(N)=O)NC(=O)[C@H](Cc2ccc(O)cc2)NC(=O)[C@H](CCC(=O)O)NC(=O)[C@H](CC(=O)O)NC1=O
# notes: scaffold TATA
# B9: BCY18470 (peptide)
# peptide: ACYLPDYLCGDEYCA-NH2
# modifications: linker 2-9-14 via TATA; also: scaffold: TATA, TATB or TBMT
# notes: scaffold TATA
# B10: BCY19683 (peptide)
# peptide: Ac-CY[Cba]PDYLC[dCha]DEYC-NH2
# modifications: linker 1-8-13 via TATA
# SMILES: CC(=O)N[C@H]1CSCCC(=O)N2CN3CN(C2)C(=O)CCSC[C@H](NC(=O)[C@H](CC(C)C)NC(=O)[C@H](Cc2ccc(O)cc2)NC(=O)[C@H](CC(=O)O)NC(=O)[C@@H]2CCCN2C(=O)[C@H](CC2CCC2)NC(=O)[C@H](Cc2ccc(O)cc2)NC1=O)C(=O)N[C@H](CC1CCCCC1)C(=O)N[C@@H](CC(=O)O)C(=O)N[C@@H](CCC(=O)O)C(=O)N[C@@H](Cc1ccc(O)cc1)C(=O)N[C@H](C(N)=O)CSCCC3=O
# notes: scaffold TATA
# B11: BCY19684 (peptide)
# peptide: Ac-CY[Cba]PDYLC[dK](Pent4ynoyl)DEYC-NH2
# modifications: linker 1-8-13 via TATA
# SMILES: C#CCCC(=O)NCCCC[C@H]1NC(=O)[C@@H]2CSCCC(=O)N3CN(CN(C3)C(=O)CCSC[C@H](NC(C)=O)C(=O)N[C@@H](Cc3ccc(O)cc3)C(=O)N[C@@H](CC3CCC3)C(=O)N3CCC[C@H]3C(=O)N[C@@H](CC(=O)O)C(=O)N[C@@H](Cc3ccc(O)cc3)C(=O)N[C@@H](CC(C)C)C(=O)N2)C(=O)CCSC[C@@H](C(N)=O)NC(=O)[C@H](Cc2ccc(O)cc2)NC(=O)[C@H](CCC(=O)O)NC(=O)[C@H](CC(=O)O)NC1=O
# notes: scaffold TATA
# B12: BCY19685 (peptide)
# peptide: Ac-CY[Cba]PDYLC[dNle]DEYC-NH2
# modifications: linker 1-8-13 via TATA
# SMILES: CCCC[C@H]1NC(=O)[C@@H]2CSCCC(=O)N3CN(CN(C3)C(=O)CCSC[C@H](NC(C)=O)C(=O)N[C@@H](Cc3ccc(O)cc3)C(=O)N[C@@H](CC3CCC3)C(=O)N3CCC[C@H]3C(=O)N[C@@H](CC(=O)O)C(=O)N[C@@H](Cc3ccc(O)cc3)C(=O)N[C@@H](CC(C)C)C(=O)N2)C(=O)CCSC[C@@H](C(N)=O)NC(=O)[C@H](Cc2ccc(O)cc2)NC(=O)[C@H](CCC(=O)O)NC(=O)[C@H](CC(=O)O)NC1=O
# notes: scaffold TATA
# B13: BCY19686 (peptide)
# peptide: Ac-CY[Cba]PD[Dopa]LC[dA]DEYC-NH2
# modifications: linker 1-8-13 via TATA
# SMILES: CC(=O)N[C@H]1CSCCC(=O)N2CN3CN(C2)C(=O)CCSC[C@H](NC(=O)[C@H](CC(C)C)NC(=O)[C@H](Cc2ccc(O)c(O)c2)NC(=O)[C@H](CC(=O)O)NC(=O)[C@@H]2CCCN2C(=O)[C@H](CC2CCC2)NC(=O)[C@H](Cc2ccc(O)cc2)NC1=O)C(=O)N[C@H](C)C(=O)N[C@@H](CC(=O)O)C(=O)N[C@@H](CCC(=O)O)C(=O)N[C@@H](Cc1ccc(O)cc1)C(=O)N[C@H](C(N)=O)CSCCC3=O
# notes: scaffold TATA
# B14: BCY19687 (peptide)
# peptide: Ac-CY[Cba]PD[Tyr(2-F)]LC[dA]DEYC-NH2
# modifications: linker 1-8-13 via TATA
# notes: scaffold TATA
# B15: BCY19689 (peptide)
# peptide: Ac-[Pen]Y[Cba]PDYLC[dA]DEYC-NH2
# modifications: linker 1-8-13 via TATA
# SMILES: CC(=O)N[C@@H]1C(=O)N[C@@H](Cc2ccc(O)cc2)C(=O)N[C@@H](CC2CCC2)C(=O)N2CCC[C@H]2C(=O)N[C@@H](CC(=O)O)C(=O)N[C@@H](Cc2ccc(O)cc2)C(=O)N[C@@H](CC(C)C)C(=O)N[C@H]2CSCCC(=O)N3CN(CN(C3)C(=O)CCSC1(C)C)C(=O)CCSC[C@@H](C(N)=O)NC(=O)[C@H](Cc1ccc(O)cc1)NC(=O)[C@H](CCC(=O)O)NC(=O)[C@H](CC(=O)O)NC(=O)[C@@H](C)NC2=O
# notes: scaffold TATA
# B16: BCY19690 (peptide)
# peptide: Ac-CY[Cba]PDYL[Pen][dA]DEYC-NH2
# modifications: linker 1-8-13 via TATA
# notes: scaffold TATA
# B17: BCY19693 (peptide)
# peptide: Ac-[dC]Y[Cba]PDYLC[dA]DEYC-NH2
# modifications: linker 1-8-13 via TATA
# notes: scaffold TATA
# Biological target: T1, Human NKp46 Fc tag (Acro Biosystems, NC1-H5257) (human, UniProt O76036 22-255)
# T1 construct: bought; also called Fc-tagged human NKp46
# T1 sequence (O76036 22-255 limits assumed): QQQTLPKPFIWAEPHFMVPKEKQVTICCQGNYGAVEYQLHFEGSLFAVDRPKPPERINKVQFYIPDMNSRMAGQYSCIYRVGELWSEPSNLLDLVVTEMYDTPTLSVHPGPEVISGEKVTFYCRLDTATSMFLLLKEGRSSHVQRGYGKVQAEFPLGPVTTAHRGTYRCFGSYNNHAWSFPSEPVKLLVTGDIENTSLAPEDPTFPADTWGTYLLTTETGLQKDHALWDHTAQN
# Experiment: SPR Method 1 and/or 2
# Description: The SPR analysis was run at 25° C. and a flow rate of 50 μl/min with 60 seconds association and 200-400 seconds dissociation time. Data were corrected for DMSO excluded volume effects. All data were double-referenced for blank injections and reference surface using standard processing procedures and data processing and kinetic fitting were performed using Scrubber software, version 2.0c (BioLogic Software). Data were fitted using simple 1:1 binding model allowing for mass transport effects where appropriate.
# For analysis of peptide binding, a Biacore 8k+ instrument was used with a CM5 chip (Cytiva). All experiments were carried out at 25° C. Anti-human IgG (Fc) antibody (Cytiva) was immobilized on all flow cells by standard amine coupling chemistry. The running buffer was HBS-N(Cytiva, 10 mM HEPES, 0.15 M NaCl, pH 7.4) and the flow rate was 10 μL/min. The carboxymethyl dextran surface was activated with a 1:1 ratio of 0.4 M 1-ethyl-3-(3-dimethylaminopropyl) carbodiimide hydrochloride (EDC)/0.1 M N-hydroxy succinimide (NHS) (Cytiva) for 420s. […] Residual activated groups were blocked with a 420 s injection of 1 M ethanolamine (pH 8.5). The final surface density was 3000-5000 RU. Fc-tagged human NKp46 was diluted to 0.1 μM in HBS-N and was captured on flow cell 2 only of the sensor chip at a flow rate of 10 μL/min to 500-1000 RU. The buffer was then changed to PBS-P+(Cytiva) supplemented with 2% DMSO. […] The flow rate was 50 μL/min with 60 s association and 400 s dissociation. Data were corrected for DMSO volume exclusion effects. All data were double-referenced against blank injections and reference surface response using standard processing procedures. Data processing and kinetic fitting was performed using Biacore Insight Evaluation Software with Extended Screening and Characterization Extension (Cytiva). Data were fitted using steady state affinity 1:1 binding model to determine KD. Data were fitted using kinetic 1:1 binding model to determine kinetic constants where appropriate.
row,Binder,Kd
1,B1,0.091 µM
2,B2,0.0077 µM
3,B3,0.0071 µM
4,B4,0.0063 µM
5,B5,0.009 µM
6,B6,0.047 µM
7,B7,0.149 µM
8,B8,0.0039 µM
9,B9,0.022 µM
10,B10,0.01 µM
11,B11,0.0094 µM
12,B12,0.01 µM
13,B13,0.044 µM
14,B14,0.028 µM
15,B15,0.016 µM
16,B16,0.019 µM
17,B17,0.017 µM
